Laboratory results published in patent US20220251204A1 (AstraZeneca / MedImmune, published 2022).

Tests used:
[1] = target: T1, human PD-1 expressed on cells (human, UniProt Q15116 25-288); assay: cell-based or functional assay
[2] = target: T2, human OX40 expressed on cells (human, UniProt P43489 29-277); assay: cell-based or functional assay
T2 sequence: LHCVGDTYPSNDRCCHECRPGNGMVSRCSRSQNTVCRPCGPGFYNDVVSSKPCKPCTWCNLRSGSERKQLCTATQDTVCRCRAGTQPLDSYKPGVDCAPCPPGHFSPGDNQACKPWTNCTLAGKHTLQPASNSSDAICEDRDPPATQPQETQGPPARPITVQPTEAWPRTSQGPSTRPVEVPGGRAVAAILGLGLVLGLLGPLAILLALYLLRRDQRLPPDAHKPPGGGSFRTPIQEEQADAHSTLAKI

[3] = target: T1, human PD-1 expressed on cells; assay: flow cytometry, HumanPD1 CHO cells, x axis hIgG1TM mAb (nM)
[4] = target: T1, human PD-1 expressed on cells; assay: flow cytometry, CHO cells expressing PD-1:CTLA-4 (10:1)
cynomolgus PD-1 = target: T3, cynomolgus PD-1 (cynomolgus, UniProt B0LAJ3 25-170); assay: SPR, BIAcore T200; antibody captured on mouse anti-huIgG-Fab, antigen injected
T3 construct: also called cyno PD1

mouse PD-1 = target: T4, mouse PD-1 (mouse, UniProt Q02242 25-167); assay: as above
T4 construct: also called mu PD1
T4 sequence (looked up): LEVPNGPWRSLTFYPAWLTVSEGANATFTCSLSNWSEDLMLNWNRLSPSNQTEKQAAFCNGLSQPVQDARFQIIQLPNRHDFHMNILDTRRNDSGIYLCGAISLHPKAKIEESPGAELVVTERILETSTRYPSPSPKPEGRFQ

[5] = target: T5, human PD-1 antigen (soluble) (human, UniProt Q15116 25-170); assay: as above
T5 construct: also called hu PD1; Biotinylated human PD-1

[6] = target: T1, human PD-1 expressed on cells; assay: flow cytometry, IgG binding to cultured T cells stimulated with anti-CD3+anti-CD28, CD4+ gate
[7] = target: T1, human PD-1 expressed on cells; assay: flow cytometry receptor occupancy, CHO cells expressing PD-1:CTLA-4 (10:1); free PD-1 detected with labeled anti-PD-1 mAb
[8] = target: T1, human PD-1 expressed on cells; assay: flow cytometry receptor occupancy, CHO cells expressing PD-1:CTLA-4 (40:1); free PD-1 detected with labeled anti-PD-1 mAb
[9] = target: T1, human PD-1 expressed on cells; assay: flow cytometry receptor occupancy, CHO cells expressing PD-1:CTLA-4 (40:1), combination of the anti-PD-1 and anti-CTLA-4 mAbs; free PD-1 detected with labeled anti-PD-1 mAb; the light-triangle curve crosses 50 % at about 6 to 7 nM
[10] = target: T6, CD32a expressed on HEK cells (UniProt P12318 34-317); assay: flow cytometry (HyperCyt, FL4-H median) on HEK CD32a cells, concentration not given
T6 construct: whole, on cells; also called HEK CD32a cells
T6 sequence (looked up): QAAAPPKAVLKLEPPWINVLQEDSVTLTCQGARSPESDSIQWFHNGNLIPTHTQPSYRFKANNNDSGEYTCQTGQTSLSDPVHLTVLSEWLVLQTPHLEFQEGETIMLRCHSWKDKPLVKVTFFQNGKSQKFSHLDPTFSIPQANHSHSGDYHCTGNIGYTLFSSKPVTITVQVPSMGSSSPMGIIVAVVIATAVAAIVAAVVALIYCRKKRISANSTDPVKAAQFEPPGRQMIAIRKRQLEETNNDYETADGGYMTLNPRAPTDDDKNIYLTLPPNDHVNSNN

[11] = target: T7, hOX40-Fc (human recombinant protein, R&D Systems) (human, UniProt P43489 29-216); assay: Octet: antibody held on PDL1-HiS-Fc loaded anti-HiS sensor, then 5ug/mL rhOx40-Fc association
T7 construct: also called human OX40-Fc; not shown: Fc part of the bought fusion
T7 sequence: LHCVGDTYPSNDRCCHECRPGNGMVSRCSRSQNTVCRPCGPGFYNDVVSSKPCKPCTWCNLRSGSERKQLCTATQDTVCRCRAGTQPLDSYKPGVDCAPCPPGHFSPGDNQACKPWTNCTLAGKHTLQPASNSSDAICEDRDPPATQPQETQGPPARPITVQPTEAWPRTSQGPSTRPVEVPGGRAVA

[12] = target: T2, human OX40 expressed on cells; assay: flow cytometry (HyperCyt, FL4-H median) on Jurkat OX40 cells, one condition, concentration not given
[13] = target: T8, human TIM3 expressed on CHO cells (human, UniProt Q8TDQ0 22-301); assay: flow cytometry, Human TIM3 CHO cells, x axis hIgG1TM (nM)
T8 construct: also called CHO cells overexpressing human TIM3
T8 sequence: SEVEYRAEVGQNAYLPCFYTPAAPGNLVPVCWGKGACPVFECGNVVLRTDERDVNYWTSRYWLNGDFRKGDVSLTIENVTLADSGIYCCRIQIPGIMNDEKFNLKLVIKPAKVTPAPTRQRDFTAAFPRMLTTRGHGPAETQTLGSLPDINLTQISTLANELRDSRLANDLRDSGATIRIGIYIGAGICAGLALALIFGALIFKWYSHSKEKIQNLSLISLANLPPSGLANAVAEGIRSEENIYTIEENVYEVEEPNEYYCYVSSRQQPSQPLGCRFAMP

human TIM3 (soluble) = target: T9, human TIM3 (soluble) (human, UniProt Q8TDQ0 22-202); assay: SPR, BIAcore T200; antibody captured on mouse anti-huIgG-Fab, antigen injected
T9 construct: also called Biotinylated human TIM3
T9 sequence: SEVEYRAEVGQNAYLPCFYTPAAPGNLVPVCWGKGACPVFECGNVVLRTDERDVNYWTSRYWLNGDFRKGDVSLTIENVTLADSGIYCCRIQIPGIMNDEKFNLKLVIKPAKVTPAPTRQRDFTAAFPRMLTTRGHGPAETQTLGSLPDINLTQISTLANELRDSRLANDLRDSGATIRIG

cynomolgus TIM3 = target: T10, cynomolgus TIM3 (cynomolgus, UniProt A0A2K5U3G7 22-195); assay: as above
T10 construct: also called Cyno TIM3
T10 sequence: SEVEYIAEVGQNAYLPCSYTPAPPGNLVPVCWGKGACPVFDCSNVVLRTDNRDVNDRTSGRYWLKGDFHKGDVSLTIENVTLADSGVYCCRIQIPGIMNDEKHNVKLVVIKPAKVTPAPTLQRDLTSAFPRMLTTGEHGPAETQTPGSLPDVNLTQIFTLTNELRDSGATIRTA

T3 sequence (B0LAJ3 entry or part of it limits assumed): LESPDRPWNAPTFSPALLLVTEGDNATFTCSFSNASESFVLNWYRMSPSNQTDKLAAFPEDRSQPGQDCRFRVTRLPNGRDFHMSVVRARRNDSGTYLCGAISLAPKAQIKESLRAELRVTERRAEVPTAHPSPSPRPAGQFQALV
T1 sequence (Q15116 25-288 limits assumed): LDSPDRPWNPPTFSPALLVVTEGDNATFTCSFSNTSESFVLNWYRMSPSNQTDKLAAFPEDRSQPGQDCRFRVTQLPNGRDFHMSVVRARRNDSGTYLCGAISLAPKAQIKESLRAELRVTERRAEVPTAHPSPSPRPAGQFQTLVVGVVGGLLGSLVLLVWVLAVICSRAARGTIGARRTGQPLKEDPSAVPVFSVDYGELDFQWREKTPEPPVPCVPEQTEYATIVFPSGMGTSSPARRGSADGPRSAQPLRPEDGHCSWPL
T5 sequence (Q15116 25-170 limits assumed): as the sequence (B0LAJ3 entry or part of it limits assumed) above, with E2D, A10P, L19V, A35T, R75Q, A144T counted along it

B1: PD-1(LO115)/OX40 BiS2 mAb (bispecific antibody, human IgG4 S228P, kappa)
heavy: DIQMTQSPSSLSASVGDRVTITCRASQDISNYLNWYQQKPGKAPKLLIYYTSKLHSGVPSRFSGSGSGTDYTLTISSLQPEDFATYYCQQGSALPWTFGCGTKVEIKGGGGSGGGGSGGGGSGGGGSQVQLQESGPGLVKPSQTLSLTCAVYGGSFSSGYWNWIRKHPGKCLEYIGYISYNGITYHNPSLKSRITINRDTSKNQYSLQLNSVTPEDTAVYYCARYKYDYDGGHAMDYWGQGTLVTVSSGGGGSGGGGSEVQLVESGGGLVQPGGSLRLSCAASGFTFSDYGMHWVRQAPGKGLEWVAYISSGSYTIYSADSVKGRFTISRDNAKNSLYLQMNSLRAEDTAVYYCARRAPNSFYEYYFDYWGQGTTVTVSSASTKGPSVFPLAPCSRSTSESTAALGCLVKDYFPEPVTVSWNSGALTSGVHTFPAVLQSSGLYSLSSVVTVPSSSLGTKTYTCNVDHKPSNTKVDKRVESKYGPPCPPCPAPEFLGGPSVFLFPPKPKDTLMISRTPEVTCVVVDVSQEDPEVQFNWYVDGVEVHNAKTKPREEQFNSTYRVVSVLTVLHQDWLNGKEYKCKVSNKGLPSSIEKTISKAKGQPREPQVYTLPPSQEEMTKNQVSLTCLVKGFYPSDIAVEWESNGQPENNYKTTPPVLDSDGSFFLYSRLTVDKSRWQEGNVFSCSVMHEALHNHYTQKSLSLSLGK
light: QIVLTQSPATLSLSPGERATLSCSASSKHTNLYWSRHMYWYQQKPGQAPRLLIYLTSNRATGIPARFSGSGSGTDFTLTISSLEPEDFAVYYCQQWSSNPFTFGQGTKLEIKRTVAAPSVFIFPPSDEQLKSGTASVVCLLNNFYPREAKVQWKVDNALQSGNSQESVTEQDSKDSTYSLSSTLTLSKADYEKHKVYACEVTHQGLSSPVTKSFNRGEC
[1]
  PD-1/PD-L1 reporter assay, EC50 (relative light units): ~1 nM
[2]
  OX40 reporter assay, EC50 (relative light units): ~2 nM

B2: BiS3 PD-1(LO115)/TIM3(O13-1) (bispecific antibody, human IgG1, kappa)
heavy: EVQLVESGGGLVQPGGSLRLSCAASGFTFSDYGMHWVRQAPGKGLEWVAYISSGSYTIYSADSVKGRFTISRDNAKNSLYLQMNSLRAEDTAVYYCARRAPNSFYEYYFDYWGQGTTVTVSSASTKGPSVFPLAPSSKSTSGGTAALGCLVKDYFPEPVTVSWNSGALTSGVHTFPAVLQSSGLYSLSSVVTVPSSSLGTQTYICNVNHKPSNTKVDKRVEPKSCDKTHTCPPCPAPEFEGGPSVFLFPPKPKDTLMISRTPEVTCVVVDVSHEDPEVKFNWYVDGVEVHNAKTKPREEQYNSTYRVVSVLTVLHQDWLNGKEYKCKVSNKALPASIEKTISKAKGQPREPQVYTLPPSREEMTKNQVSLTCLVKGFYPSDIAVEWESNGQPENNYKTTPPVLDSDGSFFLYSKLTVDKSRWQQGNVFSCSVMHEALHNHYTQKSLSLSPGKGGGGSGGGGSEVQLLESGGGLVQPGGSLRLSCAASGFTFSSYAMSWVRQAPGKCLEWVSAISGSGGSTYYADSVKGRFTISRDNSKNTLYLQMNSLRAEDTAVYYCARGSYGTYYGNYFEYWGQGTLVTVSSGGGGSGGGGSGGGGSGGGGSSYVLTQPPSVSVAPGKTARITCGGDNIGGKSVHWYQQKPGQAPVLVIYYDSDRPSGIPERFSGSNSGNTATLTISRVEAGDEADYYCQVLDRRSDHFLFGCGTKLTVL
light: QIVLTQSPATLSLSPGERATLSCSASSKHTNLYWSRHMYWYQQKPGQAPRLLIYLTSNRATGIPARFSGSGSGTDFTLTISSLEPEDFAVYYCQQWSSNPFTFGQGTKLEIKRTVAAPSVFIFPPSDEQLKSGTASVVCLLNNFYPREAKVQWKVDNALQSGNSQESVTEQDSKDSTYSLSSTLTLSKADYEKHKVYACEVTHQGLSSPVTKSFNRGEC
notes: also called PD-1/TIM3 BiS3
[3]
  EC50 (read off the curve): ~4 nM

B3: Anti-PD-1 (LO115) IgG (antibody, V domains shown)
VH: EVQLVESGGGLVQPGGSLRLSCAASGFTFSDYGMHWVRQAPGKGLEWVAYISSGSYTIYSADSVKGRFTISRDNAKNSLYLQMNSLRAEDTAVYYCARRAPNSFYEYYFDYWGQGTTVTVSS
VL: QIVLTQSPATLSLSPGERATLSCSASSKHTNLYWSRHMYWYQQKPGQAPRLLIYLTSNRATGIPARFSGSGSGTDFTLTISSLEPEDFAVYYCQQWSSNPFTFGQGTKLEIK
notes: also called anti-PD-1 parental monoclonal antibody
[4]
  EC50 (read off the curve): ~2 nM
Cynomolgus PD-1
  Kd: 0.69 nM
  koff: 0.000238 s⁻¹
  kon: 346000 M⁻¹ s⁻¹
Mouse PD-1
  Kd: 447 nM
  koff: 0.0665 s⁻¹
  kon: 149000 M⁻¹ s⁻¹
[5]
  Kd: 0.79 nM
  koff: 0.000237 s⁻¹
  kon: 302000 M⁻¹ s⁻¹
[6]
  EC50 (read off the curve): ~1 nM
[7]
  IC50: 3.9 nM
[8]
  IC50: 5.5 nM
[9]
  IC50: 6.4 nM

B4: OX40(SLR)/PD-L1 BiS5 (bispecific antibody, human IgG1, kappa)
heavy: QVQLQESGPGLVKPSQTLSLTCAVYGGSFSSGYWNWIRKHPGKGLEYIGYISYNAITYHNPSLKSRITINRDTSKNQYSLQLNSVTPEDTAVYYCARYKYDYEGGHAMDYWGQGTLVTVSSASTKGPSVFPLAPSSKSTSGGTAALGCLVKDYFPEPVTVSWNSGALTSGVHTFPAVLQSSGLYSLSSVVTVPSSSLGTQTYICNVNHKPSNTKVDKRVEPKSCDKTHTCPPCPAPELLGGPSVFLFPPKPKDTLMISRTPEVTCVVVDVSHEDPEVKFNWYVDGVEVHNAKTKPREEQYNSTYRVVSVLTVLHQDWLNGKEYKCKVSNKALPAPIEKTISKAKGQPREPQVYTLPPSREEMTKNQVSLTCLVKGFYPSDIAVEWESNGGGGSGGGGSEVQLVESGGGLVQPGGSLRLSCAASGFTFSRYWMSWVRQAPGKCLEWVANIKQDGSEKYYVDSVKGRFTISRDNAKNSLYLQMNSLRAEDTAVYYCAREGGWFGELAFDYWGQGTLVTVSSGGGGSGGGGSGGGGSGGGGSEIVLTQSPGTLSLSPGERATLSCRASQRVSSSYLAWYQQKPGQAPRLLIYDASSRATGIPDRFSGSGSGTDFTLTISRLEPEDFAVYYCQQYGSLPWTFGCGTKVEIKGGGGSGGGGSGQPENNYKTTPPVLDSDGSFFLYSKLTVDKSRWQQGNVFSCSVMHEALHAHYTQKSLSLSPGK
light: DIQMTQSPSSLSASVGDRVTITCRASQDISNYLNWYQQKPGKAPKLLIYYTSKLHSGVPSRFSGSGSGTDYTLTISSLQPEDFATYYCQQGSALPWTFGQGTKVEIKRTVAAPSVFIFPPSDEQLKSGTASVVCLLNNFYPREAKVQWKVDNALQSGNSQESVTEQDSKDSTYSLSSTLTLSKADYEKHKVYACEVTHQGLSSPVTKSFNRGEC
notes: also called BiS5 OX40Ab/PD-L1; PD-L1/OX40 BiS5
[10]
  binding result: binds
[11]
  binding result: binds
[12]
  binding result: binds

B5: O13-1 IgG1-TM (antibody, V domains shown)
VH: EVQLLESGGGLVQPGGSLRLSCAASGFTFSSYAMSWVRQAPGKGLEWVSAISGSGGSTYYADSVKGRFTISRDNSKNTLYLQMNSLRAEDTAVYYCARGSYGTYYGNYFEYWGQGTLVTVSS
VL: SYVLTQPPSVSVAPGKTARITCGGDNIGGKSVHWYQQKPGQAPVLVIYYDSDRPSGIPERFSGSNSGNTATLTISRVEAGDEADYYCQVLDRRSDHFLFGGGTKLTVLG
notes: also called anti-TIM3 LOO131
[13]
  EC50 (read off the curve): ~0.03 nM
[3]
  binding result: no binding (tested: about 100 nM)
Human TIM3 (soluble)
  Kd: 4.01 nM
  koff: 0.00752 s⁻¹
  kon: 1.88e+06 M⁻¹ s⁻¹
Cynomolgus TIM3
  Kd: 25.7 nM
  koff: 0.0718 s⁻¹
  kon: 2.79e+06 M⁻¹ s⁻¹
